Assay results: patent US20080070298, “Promoter of Synoviolin Gene” (published 2008)

How the values were obtained:
Settings in all cases: label: 32P
Fli-1 = target: T1, Fli-1 (UniProt P26323 P26323:1-452); test: EMSA; in vitro translated; supershift
T1 sequence: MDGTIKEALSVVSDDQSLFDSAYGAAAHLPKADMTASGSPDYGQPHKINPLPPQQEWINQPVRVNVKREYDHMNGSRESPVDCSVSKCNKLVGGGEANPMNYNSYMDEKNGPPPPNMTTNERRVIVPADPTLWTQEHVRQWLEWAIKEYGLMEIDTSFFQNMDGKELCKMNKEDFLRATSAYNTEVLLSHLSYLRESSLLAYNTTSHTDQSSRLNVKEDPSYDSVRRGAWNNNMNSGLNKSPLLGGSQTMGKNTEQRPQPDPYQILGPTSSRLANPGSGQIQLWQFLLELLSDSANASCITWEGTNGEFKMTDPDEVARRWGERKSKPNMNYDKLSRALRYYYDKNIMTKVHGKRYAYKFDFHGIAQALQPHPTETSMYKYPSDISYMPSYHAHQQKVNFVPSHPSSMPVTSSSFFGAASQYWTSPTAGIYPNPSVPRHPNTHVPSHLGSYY
Protocol: (§1) Next, T4 […] kinase, buffer andy γ³²P were mixed and the mixture was reacted for 30 minutes at room temperature. The reaction solution was passed through a Micro Spin G-25 column (Amersham Pharmacia Biotech), and the collected column fraction was centrifuged to obtain labeled probes. Those having radioactivity of 30000 cpm or more per 1 µl were used.
(§2) 10 μg of protein was mixed with reaction buffer and probe, and reacted for 30 minutes at room temperature. For purposes of supershift, they were reacted for 1 hour at 4° C. before being reacted with the probe. The reaction solution was electrophoresed for about 3 hours at 100v, 50 mA in non-denatured gel. The gel was dried, and analyzed by autoradiography using a Fujii BAS2000.

Ets1 = target: T2, Ets1 (UniProt P27577 P27577:1-440); test: EMSA; in vitro translated; supershift
T2 sequence: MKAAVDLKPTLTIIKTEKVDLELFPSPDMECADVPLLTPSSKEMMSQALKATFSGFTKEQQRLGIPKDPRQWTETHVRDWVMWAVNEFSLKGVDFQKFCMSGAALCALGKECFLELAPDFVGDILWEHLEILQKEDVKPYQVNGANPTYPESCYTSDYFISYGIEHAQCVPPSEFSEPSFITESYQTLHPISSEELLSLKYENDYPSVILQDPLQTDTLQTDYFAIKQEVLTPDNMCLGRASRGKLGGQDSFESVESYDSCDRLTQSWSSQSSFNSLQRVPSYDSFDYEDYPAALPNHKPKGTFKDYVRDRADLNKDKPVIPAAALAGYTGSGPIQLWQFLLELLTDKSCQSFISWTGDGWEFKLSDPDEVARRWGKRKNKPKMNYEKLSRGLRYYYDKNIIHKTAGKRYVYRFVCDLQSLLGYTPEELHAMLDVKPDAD
Protocol: as §1, §2

GABPα = target: T3, GABPα (UniProt Q00422 Q00422:1-454); test: EMSA; in vitro translated; supershift
T3 sequence: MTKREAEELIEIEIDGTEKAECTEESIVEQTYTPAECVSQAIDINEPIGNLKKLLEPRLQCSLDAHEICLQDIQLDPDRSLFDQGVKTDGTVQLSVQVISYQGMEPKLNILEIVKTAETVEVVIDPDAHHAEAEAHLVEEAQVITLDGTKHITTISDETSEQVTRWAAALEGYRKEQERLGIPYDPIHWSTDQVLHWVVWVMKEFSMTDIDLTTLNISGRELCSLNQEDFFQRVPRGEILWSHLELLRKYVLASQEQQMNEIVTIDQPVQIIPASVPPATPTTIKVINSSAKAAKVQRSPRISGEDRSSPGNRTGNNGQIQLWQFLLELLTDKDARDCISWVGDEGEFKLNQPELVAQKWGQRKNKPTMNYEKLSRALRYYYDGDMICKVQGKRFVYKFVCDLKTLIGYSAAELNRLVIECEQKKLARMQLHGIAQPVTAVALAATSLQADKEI
Protocol: as §1, §2

GABPα/GABPβ complex = GABPα/GABPβ complex (UniProt Q00422;Q00420 Q00422:1-454,Q00420:2-383); test: EMSA; new complex bands on adding GABPβ to GABPα; GABPβ antibody interferes with complex a
GABPα/GABPβ complex, sequence (Q00420 2-383, one chain of several): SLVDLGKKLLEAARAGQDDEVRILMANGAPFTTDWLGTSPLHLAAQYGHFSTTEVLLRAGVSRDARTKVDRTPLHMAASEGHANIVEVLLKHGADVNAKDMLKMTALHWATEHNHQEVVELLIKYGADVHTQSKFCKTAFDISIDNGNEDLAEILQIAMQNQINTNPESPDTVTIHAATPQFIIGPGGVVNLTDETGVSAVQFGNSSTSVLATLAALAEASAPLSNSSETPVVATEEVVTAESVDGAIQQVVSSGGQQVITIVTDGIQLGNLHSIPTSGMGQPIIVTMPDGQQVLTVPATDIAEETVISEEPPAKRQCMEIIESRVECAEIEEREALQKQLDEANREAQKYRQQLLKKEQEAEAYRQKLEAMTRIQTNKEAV
Protocol: as §1, §2

Measured: binding result

B1: EBS WT (-85 to -70) (dsDNA)
DNA 1: GCGCCGCCGGAAGTGA
DNA 2: TCACTTCCGGCGGCGC
binds: all assays above
